Primed or numbered codes have the meaning given here. Where no end group is shown, it is not given here. FITC′ = fluorescein isothiocyanate; Ahx = NCCCCCC(=O)O

B1: JCPyV LTA NLS peptide (peptide)
peptide: {FITC′-Ahx}-MFASDDENTGSQHSTPPKKKKKV
notes: also called JCPyV LTA cNLS; JCPyV LTA monopartite cNLS
B2: STLPyV LTA NLSbip peptide (peptide)
peptide: {FITC′-Ahx}-KRKFPDSSTQNSTPPKKNKPA
notes: also called STLPyV LTA cNLS; STLPyV LTA bipartite cNLS
B3: WUPyV LTA NLSbip peptide (peptide)
peptide: {FITC′-Ahx}-KRTREDDEEPQCSQATPPKKKKD
notes: also called WUPyV LTA cNLS; WUPyV LTA bipartite cNLS
B4: MWPyV LTA NLSbip peptide (peptide)
peptide: {FITC′-Ahx}-PKKRPRESSSNSTCTPPKRPRNF
notes: also called MWPyV LTA cNLS; MWPyV LTA bipartite cNLS
B5: MCPyV LTA NLSbip peptide (peptide)
peptide: {FITC′-Ahx}-PFSRKRKFGGSRSSASSASSASFTSTPPKPKKNRE
notes: also called MCPyV LTA cNLS; bipartite MCPyV LTA NLS; source: synthetic peptide (solid phase, HPLC purified)
B6: KIPyV LTA NLSbip peptide (peptide)
peptide: {FITC′-Ahx}-KRSAPEEEPSCSQATPPKKKHA
notes: also called KIPyV LTA cNLS; KIPyV LTA bipartite cNLS

Chain of human importin α7 lacking the IBB domain (IMPα7ΔIBB) (O60684 73-536, stated change not applied): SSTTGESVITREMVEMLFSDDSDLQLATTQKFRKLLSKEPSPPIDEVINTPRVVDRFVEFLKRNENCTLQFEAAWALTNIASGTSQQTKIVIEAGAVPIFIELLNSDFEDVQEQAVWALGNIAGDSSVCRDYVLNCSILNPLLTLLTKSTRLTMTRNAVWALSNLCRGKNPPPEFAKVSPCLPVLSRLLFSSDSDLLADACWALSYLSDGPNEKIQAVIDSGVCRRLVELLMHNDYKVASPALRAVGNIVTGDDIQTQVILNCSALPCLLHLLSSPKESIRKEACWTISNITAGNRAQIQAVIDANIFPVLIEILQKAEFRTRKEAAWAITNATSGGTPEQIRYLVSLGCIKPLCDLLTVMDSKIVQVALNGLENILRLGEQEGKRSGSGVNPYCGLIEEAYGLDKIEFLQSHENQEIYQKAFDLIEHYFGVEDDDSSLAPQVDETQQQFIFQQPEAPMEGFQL
Chain of human importin α5 lacking the IBB domain (IMPα5ΔIBB) (P52294 73-538, stated change not applied): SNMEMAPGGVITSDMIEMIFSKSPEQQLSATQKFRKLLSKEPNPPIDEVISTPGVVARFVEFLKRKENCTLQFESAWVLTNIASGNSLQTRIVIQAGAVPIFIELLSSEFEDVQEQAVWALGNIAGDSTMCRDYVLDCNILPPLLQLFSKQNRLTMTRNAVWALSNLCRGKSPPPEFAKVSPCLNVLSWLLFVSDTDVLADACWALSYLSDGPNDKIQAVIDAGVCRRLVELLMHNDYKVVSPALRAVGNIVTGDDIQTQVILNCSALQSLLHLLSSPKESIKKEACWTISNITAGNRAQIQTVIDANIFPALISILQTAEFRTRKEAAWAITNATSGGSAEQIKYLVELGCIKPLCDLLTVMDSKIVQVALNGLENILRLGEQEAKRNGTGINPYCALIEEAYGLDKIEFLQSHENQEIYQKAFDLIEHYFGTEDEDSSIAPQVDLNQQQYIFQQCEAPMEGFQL

The target in the first assay is T1, human importin α1 lacking the IBB domain (IMPα1ΔIBB) (human, UniProt P52292 70-529). As to the kind of experiment: fluorescence polarisation; two-fold dilutions of IMPαΔIBB titrated against FITC-cNLS peptide in tris-buffered saline, 200 μL; one site specific binding fit; triplicate. The note with it: both partners purified.
In the case of B1, the Kd (in general, a measure of binding affinity in units of concentration) lay in the range of 76 to 270 nM.

A further assay addresses T2, mouse importin α2 lacking the IBB domain (IMPα2ΔIBB) (mouse, UniProt P52293 70-529). Briefly: crystal structure. The settings on record: both partners purified.
For the molecule B1, the binding result is recorded as “binds”.

The next assay has as its target human importin α5 lacking the IBB domain (IMPα5ΔIBB) (human, UniProt P52294 73-538). Briefly: native gel or EMSA; 1.5% agarose gel in TB buffer (0.45 mM tris, 0.45 mM boric acid, pH 8.5), 70 V for 2 h; IMPαΔIBB ± FITC-cNLS peptide; UV image for the peptide, Coomassie for the protein. The note with it: both partners purified. On the technique in general: In EMSA bound probe runs differently from free probe, usually more slowly.
In the case of B2, the binding result is on record as “binds”.
Still for that read-out and setting: for B3 the value was “binds”; for B4, “binds”; for B1, “binds”.
Take B5: the binding result was “binds”.
As to B6, the binding result was “binds”.

The next assay concerns the target T2, mouse importin α2 lacking the IBB …. The description is as above. The settings on record: both partners purified.
B2: the binding result is “binds”.
On the same count and under the same terms, for B3 the value was “binds”; for B4, “binds”.
Still for that read-out and setting: to B5 belongs “binds”; to {FITC′}-PFSRKRKFGGS [MCPyV LTA NLSm peptide], “binds”.
Same read-out and setting: for B6 the value was “binds”.

A further assay deals with T3, human importin α3 lacking the IBB domain (IMPα3ΔIBB) (human, UniProt O00629 64-521).
T3 sequence (looked up): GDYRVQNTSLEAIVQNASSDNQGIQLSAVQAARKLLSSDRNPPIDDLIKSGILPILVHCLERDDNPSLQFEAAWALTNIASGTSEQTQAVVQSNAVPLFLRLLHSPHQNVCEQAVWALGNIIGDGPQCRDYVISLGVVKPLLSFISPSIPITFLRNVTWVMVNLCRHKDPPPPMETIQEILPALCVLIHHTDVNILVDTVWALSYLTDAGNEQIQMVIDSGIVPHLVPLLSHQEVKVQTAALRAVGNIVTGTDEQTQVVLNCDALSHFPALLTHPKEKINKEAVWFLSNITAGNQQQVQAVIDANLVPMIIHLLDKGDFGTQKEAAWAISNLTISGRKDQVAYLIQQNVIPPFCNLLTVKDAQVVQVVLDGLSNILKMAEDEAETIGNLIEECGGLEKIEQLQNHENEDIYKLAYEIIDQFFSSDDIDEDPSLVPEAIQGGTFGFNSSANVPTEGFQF
The assay is described as above. The settings on record: both partners purified.
B2: the binding result was “binds”.
Same read-out and setting: to B3 belongs “binds”.
Still for that read-out and setting: for B4 the value was “binds”; for B1, “binds”; for B5, “binds”.
On the same count and under the same terms, to B6 belongs “binds”.

A further assay has as its target human importin α7 lacking the IBB domain (IMPα7ΔIBB) (human, UniProt O60684 73-536). The description is as above. The settings on record: both partners purified.
With B2, the binding result is given as “binds”.
On the same count and under the same terms, for B3 the value was “binds”; for B4, “binds”.
On the same count and under the same terms, for B1 the value was “binds”; for B5, “binds”.
The same measure, in the same setting: to B6 belongs “binds”.

For a further assay, the target named is T1, human importin α1 lacking the IBB …. The assay is described as above. The settings on record: both partners purified.
As for B2, the binding result is on record as “binds”.
Still for that read-out and setting: to B3 belongs “binds”; to B4, “binds”; to B5, “binds”.
Regarding B6, the binding result was “binds”.

For the origin of these results see article PMC10807245, “A functional and structural comparative analysis of large tumor antigens reveals evolution of different importin α‐dependent nuclear localization signals” (Protein Science : A Publication of the Protein Society, 2024).
